Laboratory results from paper PMC2199741.

Molecular target: biotinylated peptide comprising the NH2-terminal 73 amino acids of GM130 (N73pep) (UniProt Q62839)
Assay: pull-down

percent of p115 depleted from cytosol: > 95%
B1: p115, vesicle tethering protein (natural protein)
chain: MNFLRGVMGGQSAGPQHTEAETIQKLCDRVASSTLLDDRRNAVRALKSLSKKYRLEVGIQAMEHLIHVLQTDRSDSEIIAYALDTLYNIISNDEEEEVEENSTRQSEDLGSQFTEIFIKQPENVTLLLSLLEEFDFHVRWPGVRLLTSLLKQLGPPVQQIILVSPMGVSKLMDLLADSREIIRNDGVLLLQALTRSNGAIQKIVAFENAFERLLDIITEEGNSDGGIVVEDCLILLQNLLKNNNSNQNFFKEGSYIQRMKAWFEVGDENPGWSAQKVTNLHLMLQLVRVLVSPTNPPGATSSCQKAMFQCGLLQQLCTILMATGIPADILTETINTVSEVIRGCQVNQDYFASVNAPSNPPRPAIVVLLMSMVNERQPFVLRCAVLYCFQCFLYKNEKGQGEIVATLLPSTIDATGNSVSAGQLLCGGLFSTDSLSNWCAAVALAHALQGNATQKEQLLRVQLATSIGNPPVSLLQQCTNILSQGSKIQTRVGLLMLLCTWLSNCPIAVTHFLHNSANVPFLTGQIAENLGEEEQLVQGLCALLLGISIYFNDNSLENYTKEKLKQLIEKRIGKENYIEKLGFISKHELYSRASQKPQPNFPSPEYMIFDHEFTKLVKELEGVITKAIYKSSEEDKKEEEVKKTLEQHDNIVTHYKNMIREQDLQLEELKQQVSTLKCQNEQLQTAVTQQASQIQQHKDQYNLLKVQLGKDNHHQGSHSDGAQVNGIQPEEISRLREEIEELRSHQVLLQSQLAEKDTVIENLRSSQVSGMSEQALATCSPRDAEQVAELKQELSALKSQLCSQSLEITRLQTENSELQQRAETLAKSVPVEGESELVTAAKTTDVEGRLSALLQETKELKNEIKALSEERTAIQKQLDSSNSTIAILQTEKDKLYLEVTDSKKEQDDLLVLLADQDQKILSLKSKLKDLGHPVEEEDESGDQEDDDDELDDGDRDQDI
